Data taken from patent publication US20220112244A1 (DOMPE FARMACEUTICI S P A, published 2022).
No end group written: not given here.

These binders were tested against T1, IL-17A (agonist in the IL-17RA/IL17RC dimerization assay) (UniProt Q16552 24-155) (assay: cell-based or functional assay).
T1 sequence (Q16552 24-155 limits assumed): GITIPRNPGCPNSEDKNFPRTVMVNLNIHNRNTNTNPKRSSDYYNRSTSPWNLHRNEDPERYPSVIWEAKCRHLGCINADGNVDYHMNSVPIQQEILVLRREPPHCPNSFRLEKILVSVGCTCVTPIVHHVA

| IC50, % inhibition of IL-17A-induced IL-17RA/IL17RC dimerization (PathHunter cytokine receptor assay) | Binder |
| --- | --- |
| 188 nM | Ac-VMVTIPADLYEWIEEVPGAGVPGAG-NH2 [peptide of SEQ ID NO: 37] |
| 118 nM | Ac-IHVTIPADLWDWINE-NH2 [peptide of SEQ ID NO: 12] |
| 380 nM | Ac-IHVTIPADLWDWVRR-NH2 [peptide of SEQ ID NO: 14] |

The remaining lines, values behind:

| Binder | IC50, % inhibition of IL-17A-induced IL-17RA/IL17RC dimerization (PathHunter cytokine receptor assay) |
| --- | --- |
| Ac-IHVTIPADLWDWINR-NH2 [peptide of SEQ ID NO: 10] | 263 nM |
| Ac-VPGDGVMVTIPADLYEWIEE-NH2 [peptide of SEQ ID NO: 39] | 158 nM |
| Ac-VMVTIPADLYEWIEEVPGDG-NH2 [peptide of SEQ ID NO: 40] | 240 nM |
| Ac-IHVTIPADLWDWVNK-NH2 [peptide of SEQ ID NO: 8] | 189 nM |
| Ac-IHVTIPADLYEWINK-NH2 (not fully specified) [peptide of SEQ ID NO: 7] | 103 nM |
| Ac-VMVTIPADLWDWINK-NH2 [peptide of SEQ ID NO: 4] | 203 nM |

Target: T1, IL-17A (agonist in the IL-17RA/IL17RC …)
Assay: cell-based or functional assay
Remark: another data set of the same source

| IC50 in IL-17RA/IL7RC dimerization assay | Binder |
| --- | --- |
| < 500 nM | Ac-VHVTIPADLWEWFRR-NH2 [peptide of SEQ ID NO: 121] |
| < 500 nM | Ac-VHFQFPQDLWEFVRR-NH2 [peptide of SEQ ID NO: 140] |
| < 10000 nM | Ac-GHVTIPADLWDWINK-NH2 [peptide of SEQ ID NO: 159] |
| < 500 nM | Ac-VHFQFPQDLWEWVRR-NH2 [peptide of SEQ ID NO: 150] |
| < 200 nM | Ac-VMVTIPADLYEWIEEVPGAGVPGAG-NH2 [peptide of SEQ ID NO: 37] |
| < 500 nM | Ac-VHFTFPQDFWEWVRR-NH2 [peptide of SEQ ID NO: 125] |
| < 200 nM | Ac-IHVTIPADLWDWINE-NH2 [peptide of SEQ ID NO: 12] |
| < 10000 nM | Ac-IRVTIPADLWDWINK-NH2 [peptide of SEQ ID NO: 162] |
| < 500 nM | Ac-VHFTIPQDLYEWVRR-NH2 [peptide of SEQ ID NO: 126] |
| < 10000 nM | Ac-PHVTIPADLWDWINK-NH2 [peptide of SEQ ID NO: 161] |
| < 500 nM | Ac-VHVTIPAEWWEWVRR-NH2 [peptide of SEQ ID NO: 123] |
| < 500 nM | Ac-VHFQFPQEWYNWFRR-NH2 [peptide of SEQ ID NO: 154] |
| < 500 nM | Ac-VHFTFPQDLWEWVRR-NH2 [peptide of SEQ ID NO: 124] |
| < 500 nM | Ac-VHFQFPADLWNWVRR-NH2 [peptide of SEQ ID NO: 133] |
| < 1000 nM | {ascorbic acid}-IMVTIPADLYEWIEE [BIO-5] |
| < 500 nM | Ac-VHFTIPADLYNFVRR-NH2 [peptide of SEQ ID NO: 152] |
| < 10000 nM | Ac-LHVTIPADLWDWINK-NH2 [peptide of SEQ ID NO: 160] |
| < 500 nM | Ac-VHFTFPQDLWEFVRR-NH2 [peptide of SEQ ID NO: 128] |
| < 500 nM | Ac-VHFQFPQDWWEWFRR-NH2 [peptide of SEQ ID NO: 141] |
| < 1000 nM | {N‑acetylmuramic acid}-IMVTIPADLYEWIEE [BIO-1] |
| < 400 nM | Ac-IHVTIPADLWDWVRR-NH2 [peptide of SEQ ID NO: 14] |
| < 500 nM | Ac-VHVTIPADLWNWVRR-NH2 [peptide of SEQ ID NO: 119] |
| < 500 nM | Ac-VHVQIPADFWEWFRR-NH2 [peptide of SEQ ID NO: 143] |
| < 10000 nM | Ac-AHVTIPADLWDWINK-NH2 [peptide of SEQ ID NO: 158] |
| < 500 nM | Ac-VHVTFPADLWEWFRR-NH2 [peptide of SEQ ID NO: 144] |
| < 300 nM | Ac-IHVTIPADLWDWIRK-NH2 [peptide of SEQ ID NO: 9] |

Further lines, the binder ahead of its results:

| Binder | IC50 in IL-17RA/IL7RC dimerization assay |
| --- | --- |
| Ac-VHFTFPQDLYNWVRR-NH2 [peptide of SEQ ID NO: 147] | < 500 nM |
| Ac-VHFTIPQDWWEWVRR-NH2 [peptide of SEQ ID NO: 146] | < 500 nM |
| Ac-VHFTFPQDLWNWVRR-NH2 [peptide of SEQ ID NO: 127] | < 500 nM |
| Ac-VHFTFPQDLWEWFRR-NH2 [peptide of SEQ ID NO: 129] | < 500 nM |
| {capric acid}-IMVTIPADLYEWIEE [BIO-4] | < 1000 nM |
| Ac-VHFQFPQDWWNWVRR-NH2 [peptide of SEQ ID NO: 139] | < 500 nM |
| Ac-VHFTIPADFWEWFRR-NH2 [peptide of SEQ ID NO: 142] | < 500 nM |
| Ac-IHVTIPADLWDWINR-NH2 [peptide of SEQ ID NO: 10] | < 400 nM |
| Ac-VHFQFPADLWEWVRR-NH2 [peptide of SEQ ID NO: 130] | < 500 nM |
| Ac-VHVTIPADLWEFVRR-NH2 [peptide of SEQ ID NO: 120] | < 500 nM |
| Ac-VPGDGVMVTIPADLYEWIEE-NH2 [peptide of SEQ ID NO: 39] | < 200 nM |
| Ac-IHVTIPADLYDWINK-NH2 [peptide of SEQ ID NO: 6] | < 400 nM |
| Ac-VHFQIPQDWWEWVRR-NH2 [peptide of SEQ ID NO: 137] | < 500 nM |
| Ac-VHVTIPQDFWEWFRR-NH2 [peptide of SEQ ID NO: 145] | < 500 nM |
| Ac-VHFQIPQDLYNFFRR-NH2 [peptide of SEQ ID NO: 153] | < 500 nM |
| Ac-VMVTIPADLYEWIEEVPGDG-NH2 [peptide of SEQ ID NO: 40] | < 200 nM |
| Ac-VHFTIPQDLYNWRR-NH2 [peptide of SEQ ID NO: 151] | < 500 nM |
| Ac-IHVTIPADLWDWVNK-NH2 [peptide of SEQ ID NO: 8] | < 200 nM |
| Ac-VHVYIPAELWEWVRR-NH2 [peptide of SEQ ID NO: 122] | < 500 nM |
| Ac-VMVTIPADLWDWINK-NH2 [peptide of SEQ ID NO: 4] | < 100 nM |
| Ac-VHFQFPADLWEFVRR-NH2 [peptide of SEQ ID NO: 134] | < 500 nM |
| Ac-VHVTIPADLYNFFRR-NH2 [peptide of SEQ ID NO: 149] | < 500 nM |
| Ac-VPGAGVPGAGIHVTIPA-NH2 [peptide of SEQ ID NO: 157] | < 500 nM |
| Ac-IKVTIPADLWDWINK-NH2 [peptide of SEQ ID NO: 163] | < 10000 nM |
| IMVTIPADLYEWIEEQ-{N‑acetylglucosamine} [BIO-2] | < 1000 nM |
| {N‑acetylglucosamine-N‑acetylmuramic acid}-IMVTIPADLYEWIEE [BIO-3] | < 1000 nM |
| Ac-VHFQFPADLWEWFRR-NH2 [peptide of SEQ ID NO: 135] | < 500 nM |
| Ac-VRFQFGQEWYNFFRR-NH2 [peptide of SEQ ID NO: 155] | < 500 nM |
| Ac-VPGAGVPGAGIHVTI-NH2 [peptide of SEQ ID NO: 156] | < 500 nM |
| Ac-VHFTFPQDLYNFVRR-NH2 [peptide of SEQ ID NO: 148] | < 500 nM |
